Source: patent publication US20090181019A1

Molecular target: IL-1 receptor (human) (UniProt P14778)
Test: cell-based or functional assay

Sequence of UniProt P14778 (P14778 18-569): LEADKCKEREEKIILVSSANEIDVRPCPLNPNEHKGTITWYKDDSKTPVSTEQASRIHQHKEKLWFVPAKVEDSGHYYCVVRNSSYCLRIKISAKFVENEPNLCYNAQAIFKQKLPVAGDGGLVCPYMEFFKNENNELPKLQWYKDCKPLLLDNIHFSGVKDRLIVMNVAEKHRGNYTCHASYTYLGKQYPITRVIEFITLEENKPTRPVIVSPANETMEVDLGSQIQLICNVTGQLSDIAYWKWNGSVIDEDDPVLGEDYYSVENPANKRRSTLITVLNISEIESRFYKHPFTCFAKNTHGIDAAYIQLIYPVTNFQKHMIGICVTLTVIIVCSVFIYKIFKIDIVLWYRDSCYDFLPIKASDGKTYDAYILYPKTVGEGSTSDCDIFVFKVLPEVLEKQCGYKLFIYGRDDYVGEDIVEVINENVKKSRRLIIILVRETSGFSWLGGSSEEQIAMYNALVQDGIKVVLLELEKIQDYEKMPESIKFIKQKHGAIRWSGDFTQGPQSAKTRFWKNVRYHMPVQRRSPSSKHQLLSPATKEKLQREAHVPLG

IC50, inhibition of IL-1β stimulated release of IL-8 in human whole blood (100 pM rhIL-1β, IL-8 ELISA): 53.4 pM
Substance: Kineret® (anakinra) (from UniProt P18510 26-177) (ligand)
